Reference: patent publication US20260234270A1, “METHODS FOR TREATING CONDITIONS USING ANTI-NMDA RECEPTOR ANTIBODIES” (Lankenau Institute for Medical Research, priority 2022, published 2026)
Entries after “also recorded” stand apart in the source; their conditions may differ.

What was measured:
tinnitus = settings: intratympanic injection; cited from earlier work
retinal cells = settings: glaucoma, elevated homocysteine; cited from earlier work
[1] = tested on: monkey model of experimental glaucoma; settings: cited from earlier work
[2] = tested on: streptozotocin-induced diabetic mouse model; settings: cited from earlier work
[3] = tested on: amino terminal domain of GluN1; assay: Competitive binding assay, Whole Cell ELISA with HEK293T-ATD cells; settings: for Binding of one biotinylated mAb in the presence of increasing concentrations of the other mAb (2G6 versus 5F5): HEK293T-ATD cells, competitor 50 to 0.2 μg/mL, biotinylated mAb 5 μg/mL; for Competition of 1D1 with mixed 2G6 and 5F5 mAbs for binding to NMDAR ATD: experiments similar to Example 2
From the text: We assessed the binding epitopes of the 2G6 and 5F5 mAbs. We tested whether they bind overlapping epitopes on GluN1, using a competitive binding assay with HEK293T-ATD cells, which express the amino terminal domain of GluN1. Sharma, R., Al-Saleem, F. H., Panzer, J., Lee, J., Puligedda, R. D., Felicori, L. F., Kattala, C. D., Rattelle, A. J., Ippolito, G., Cox, R. H., Lynch, D. R. and Dessain, S. K. (2018), Monoclonal antibodies from a patient with anti-NMDA receptor encephalitis. Ann Clin Transl Neurol, 5:935-951, which is incorporated herein by reference.
HEK293T-ATD cells (10^5 cells/well) were tested in a Whole Cell ELISA with luminescent detection method. We biotinylated the 5F5 and 2G6 or 5F5 using the EZ-Link™ Hydrazide-Biotin kit (Thermo Fisher), then generated dilution series of 2G6 or 5F5 (50 μg/mL to 0.2 μg/mL) and added to them the plate for 1 h at 37° C., followed by three washes with PBST. We then added the biotinylated 5F5 or 2G6 mAbs at 5 μg/mL, or PBS, and incubated for 1 h at 37° C. followed by three washes with PBST. The Pierce Streptavidin Poly-HRP substrate (Thermo Fisher) was added at 1:2000 dilution and incubated for 1 h at 37° C. This was followed by SuperSignal ELISA Femto Substrate, (1:1 ratio) (Thermo Fisher) and relative luminescence values were measured using the Synergy II plate reader. Duplicate binding curves were plotted and the linear portions were used for analysis using Excel.
We measured binding of one mAb, biotinylated, in the presence of increasing concentrations of the other.
Experiments similar to those done in Example 2 were used to test whether the 1D1 binds a site on the NMDAR ATD that overlaps 2G6 and 5F5. In these experiments, 1D1 binding was tested in competition with mixed 2G6 and 5F5 mAbs.

NMDAR GluN1 antigen = NMDAR GluN1 antigen (Mus musculus, UniProt P35438); assay: Immunofluorescence staining of mouse retinas (normoxic; oxygen induced retinopathy model); type: binding; settings: chimeric antibodies
NMDAR GluN1 epitopes = target: T1, NMDAR GluN1 epitopes (Mus musculus, UniProt P35438); assay: Antibody binding in mouse retina, model of retinitis pigmentosa
T1 construct: from tissue; host or cells: mouse retina, model of retinitis pigmentosa
From the text: Left panels show DAPI staining, middle panels show antibody staining, right antibodies show merged imaging.

[4] = tested on: oxygen induced retinopathy (OIR) in mice; assay: Mouse oxygen induced retinopathy (OIR) model, hyperoxia induced hemorrhage; type: in vivo; settings: hyperoxia P7 to P12; eye injected at P12; other eye PBS
Protocol: Neonatal mice were exposed to hyperoxia (75% oxygen) from postnatal day 7 (P7) to P12, and then returned to room air. Upon return to room temperature, at P12, the eye on the right was injected with 5F5 antibody against NMDAR, while the left eye in the figure was injected with PBS.
We next examined the potential effects of the NMDAR antibodies on pathological retinal neovascularization. We used the well characterized model of oxygen induced retinopathy (OIR) in mice. In this model, neonatal mice are exposed to hyperoxia (75% oxygen) from postnatal day 7 (P7) to P12, and then returned to room air. This approach, induces pathological neovascularization in the retina. In FIGS. 3A and 3B, a comparison is shown between two eyes of a mouse exposed to hyperoxia. Upon return to room temperature, at P12, the eye in FIG. 3B was injected with 5F5 antibody against NMDAR, while the eye in FIG. 3A was injected with PBS. […] This is a wholly unexpected finding.

[5] = hyperoxic conditions (75% oxygen P7 to P12, oxygen induced retinopathy model)

CN[C@]1(c2ccccc2Cl)CCCCC1=O [Esketamine]
Activity in treatment of tinnitus (tinnitus): has shown activity in treatment of tinnitus

C[C@]12N[C@H](Cc3ccccc31)c1ccccc12 [MK-801]
Homocysteine toxicity to retinal cells via NMDAR (retinal cells): inhibited

CC12CC3CC(C)(C1)CC(N)(C3)C2 [Memantine]
Retinal damage [1]: reduced retinal damage | Retinal toxicity [2]: reduce retinal toxicity

B1: 5F5: monoclonal human anti-NMDAR (GluN1) antibody; variable heavy chain SEQ ID NO: 1, light chain SEQ ID NO: 3; chimeric form in Examples 5-8 (antibody, listed as Mus musculus, listed as Homo sapiens, V domains shown)
VH: QVQLVESGGGVVRPGGSLRLSCAASGFTFSTYSLHWVRQAPGKGLEWVGVILYDGSKKYYADSVRGRFTISRDNSKSTLNLDMSSLRPDDTAVYYCARDPIAVAPRPSGMVPQGFDYWGQGTLVTVSS
VL: QSVVTQPPSASGTPGQRVTISCSGSSSNIGRNFVFWYRQLPGTAPKVLIYKNIQRPSGVPDRISGSRSGSSASLAISGLRSEDEADYYCASWDDSLSGVVFGGGTKLTVL
Binding of one biotinylated mAb in the presence of increasing concentrations of the other mAb (2G6 versus 5F5) [3]: Bind Different Sites on the NMDAR | Competition of 1D1 with mixed 2G6 and 5F5 mAbs for binding to NMDAR ATD [3]: not inhibited by 1D1 | Antibody binding in mouse retina (NMDAR GluN1 antigen; [5]): shows staining; also recorded: show binding in outer segments of mouse retina | Antibody binding in mouse retina (NMDAR GluN1 antigen; hyperoxic conditions (75% oxygen P7 to P12, oxygen induced retinopathy model), listed as 5G5): immunoreactive with the outer segment of the photoreceptors as well as the choriocapillaris layers of the mouse retina | Antibody binding in mouse retina (NMDAR GluN1 antigen; normoxic conditions): None of the anti-NMDAR antibodies or the control antibody bound to mouse retina | Antibody binding in mouse retina (epitope expression) (NMDAR GluN1 epitopes): expressed in the mouse retina | Retinal bleeding / pathological neovascularization of the treated eye [4]: Prevents Hyperoxia Induced Hemorrhage; also recorded: the treated eye shows no bleeding

B2: 2G6: monoclonal human anti-NMDAR (GluN1) antibody; variable heavy chain SEQ ID NO: 9, light chain SEQ ID NO: 11 (antibody, listed as Mus musculus, listed as Homo sapiens, V domains shown)
VH: QVQLQESGGGVVQPGRSLRLSCAASGFSFNAFAMHWVRQAPGKGLEWVARISHYGSDDYYADSVKGRFTISRDNSQNTLFLQMNSLKAEDTGVYYCWRGFTLVRGVISRNPINRFSGMDVWGQGTTVTVS
VL: SYELMQPPSVSVSPGQTARITCSGDALPKKYAYWYQQKSGQAPILVIYEDNKRPSGIPERFSGSSSGTMATLTISGAQVEDEADYFCYSTDSSGNHGVFGGGTKLTVL
Binding of one biotinylated mAb in the presence of increasing concentrations of the other mAb (2G6 versus 5F5) [3]: Bind Different Sites on the NMDAR | Competition of 1D1 with mixed 2G6 and 5F5 mAbs for binding to NMDAR ATD [3]: not inhibited by 1D1 | Antibody binding in mouse retina (NMDAR GluN1 antigen; [5]): expressed in the mouse retina; also recorded: immunoreactive with the outer segment of the photoreceptors as well as the choriocapillaris layers of the mouse retina; also recorded: show binding in outer segments of mouse retina | Antibody binding in mouse retina (NMDAR GluN1 antigen; normoxic conditions): None of the anti-NMDAR antibodies or the control antibody bound to mouse retina | Antibody binding in mouse retina (epitope expression) (NMDAR GluN1 epitopes): expressed in the mouse retina

B3: 1D1: monoclonal human anti-NMDAR (GluN1) antibody; variable heavy chain SEQ ID NO: 5, light chain SEQ ID NO: 7 (antibody, listed as Mus musculus, listed as Homo sapiens, V domains shown)
VH: LVQLVESGGGVVQSGRSLRLSCAASGFAFHTFTIHWVRQAPGKGLDWVTAIYFDGTKKYYADSVKGRFTVSRDNSKNTVYLQMNGLRGEDTAVYYCARARYSYGLSFDYWGQGTPVTVSS
VL: QSVVTQPPSVSAAPGQKVTISCSASSSYLGSNYVSWYQQLPGTAPKLLIYDNNKRSSGISDRFSGSKSGTSATLDITGLQTGDEADYYCGAWDSSLSVVVFGGGTKLTVL
Competition of 1D1 with mixed 2G6 and 5F5 mAbs for binding to NMDAR ATD [3]: not inhibited by 2G6 and 5F5 binding | Antibody binding in mouse retina (NMDAR GluN1 antigen; [5]): expressed in the mouse retina; also recorded: immunoreactive with the outer segment of the photoreceptors as well as the choriocapillaris layers of the mouse retina; also recorded: show binding in outer segments of mouse retina | Antibody binding in mouse retina (NMDAR GluN1 antigen; normoxic conditions): None of the anti-NMDAR antibodies or the control antibody bound to mouse retina
